Results published in ChEMBL document CHEMBL4229398, “Activities of recombinant human bleomycin hydrolase on bleomycins and engineered analogues revealing new opportunities to overcome bleomycin-induced pulmonary toxicity” (Bioorg Med Chem Lett, 2018).

Key:
Type in all cases: ADME
Bleomycin hydrolase [1] = biological target: T1, Bleomycin hydrolase (Homo sapiens, UniProt Q13867); assay: Substrate activity at recombinant human N-terminal His6-tagged BLMH expressed in Escherichia coli BL21(DE3) assessed as Kcat to Km ratio measured after 1 hr by HPLC-based Michaelis-Menten plot analysis relative to BLM B2
T1 sequence (Q13867 whole entry): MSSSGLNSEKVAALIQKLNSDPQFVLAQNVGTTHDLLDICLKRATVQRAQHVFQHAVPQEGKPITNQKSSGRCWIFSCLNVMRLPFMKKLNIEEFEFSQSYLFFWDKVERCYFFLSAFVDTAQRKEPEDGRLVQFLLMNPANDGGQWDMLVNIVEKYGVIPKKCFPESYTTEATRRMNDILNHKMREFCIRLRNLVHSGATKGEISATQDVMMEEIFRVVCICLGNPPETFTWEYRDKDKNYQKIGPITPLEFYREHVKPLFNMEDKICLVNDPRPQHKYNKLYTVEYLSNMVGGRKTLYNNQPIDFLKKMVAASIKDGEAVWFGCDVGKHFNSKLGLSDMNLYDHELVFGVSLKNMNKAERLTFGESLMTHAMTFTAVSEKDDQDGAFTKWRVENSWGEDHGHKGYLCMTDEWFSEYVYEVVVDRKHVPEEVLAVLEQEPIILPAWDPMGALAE

Bleomycin hydrolase [2] = biological target: T1, Bleomycin hydrolase; assay: Substrate activity at recombinant human N-terminal His6-tagged BLMH expressed in Escherichia coli BL21(DE3) assessed as Kcat to Km ratio measured after 1 hr by HPLC-based Michaelis-Menten plot analysis
Bleomycin hydrolase [3] = biological target: T1, Bleomycin hydrolase; assay: (§1) Substrate activity at recombinant human N-terminal His6-tagged BLMH expressed in Escherichia coli BL21(DE3) measured after 1 hr by HPLC-based Michaelis-Menten plot analysis
Bleomycin hydrolase [4] = biological target: T1, Bleomycin hydrolase; assay: (§2) Substrate activity at recombinant human BLMH expressed in baculovirus infected Sf9 insect cells assessed as Kcat to Km ratio
[5] = substrate: Cc1c(N)nc([C@H](CC(N)=O)NC[C@H](N)C(N)=O)nc1C(=O)N[C@H](C(=O)N[C@H](C)[C@@H](O)[C@H](C)C(=O)N[C@H](C(=O)NCCc1nc(-c2nc(C(=O)NCCCCNC(=N)N)cs2)cs1)[C@@H](C)O)[C@@H](O[C@@H]1O[C@@H](CO)[C@@H](O)[C@H](O)[C@@H]1O[C@H]1O[C@H](CO)[C@@H](O)[C@H](OC(N)=O)[C@@H]1O)c1c[nH]cn1; assay: as §2
[6] = substrate: Cc1c(N)nc([C@H](CC(N)=O)NC[C@H](N)C(N)=O)nc1C(=O)N[C@H](C(=O)N[C@H](C)[C@@H](O)[C@H](C)C(=O)N[C@H](C(=O)NCCc1nc(-c2nc(C(=O)NCCCCNC(=N)N)cs2)cs1)[C@@H](C)O)[C@@H](O[C@@H]1O[C@@H](CO)[C@@H](O)[C@H](O)[C@@H]1O[C@H]1O[C@H](CO)[C@@H](O)[C@H](OC(N)=O)[C@@H]1O)c1c[nH]cn1; assay: as §1
[7] = substrate: [H][C@]1(O[C@@H]2[C@H](O[C@@H](c3c[nH]cn3)[C@H](NC(=O)c3nc([C@H](CC(N)=O)NC[C@H](N)C(N)=O)nc(N)c3C)C(=O)N[C@H](C)[C@@H](O)CC(=O)N[C@H](C(=O)NCCc3nc(-c4nc(C(=O)NCCCC(N)CC(=O)NCCCNCCCCN)cs4)cs3)[C@@H](C)O)O[C@@H](CO)[C@@H](O)[C@@H]2O)O[C@H](CO)[C@@H](O)[C@H](OC(N)=O)[C@@H]1O; assay: as §1
[8] = substrate: [H][C@]1(O[C@@H]2[C@H](O[C@@H](c3c[nH]cn3)[C@H](NC(=O)c3nc([C@H](CC(N)=O)NC[C@H](N)C(N)=O)nc(N)c3C)C(=O)N[C@H](C)[C@@H](O)CC(=O)N[C@H](C(=O)NCCc3nc(-c4nc(C(=O)NCCCC(N)CC(=O)NCCCNCCCCN)cs4)cs3)[C@@H](C)O)O[C@@H](C)[C@@H](O)[C@@H]2O)O[C@H](CO)[C@@H](O)[C@H](OC(N)=O)[C@@H]1O; assay: as §1
[9] = substrate: [H][C@]1(O[C@@H]2[C@H](O[C@@H](c3c[nH]cn3)[C@H](NC(=O)c3nc([C@H](CC(N)=O)NC[C@H](N)C(N)=O)nc(N)c3C)C(=O)N[C@H](C)[C@@H](O)[C@H](C)C(=O)N[C@H](C(=O)NCCc3nc(-c4nc(C(=O)NCCC(=N)N)cs4)cs3)[C@@H](C)O)O[C@@H](CO)[C@@H](O)[C@@H]2O)O[C@H](CO)[C@@H](O)[C@H](OC(N)=O)[C@@H]1O; assay: as §1
[10] = substrate: [H][C@]1(O[C@@H]2[C@H](O[C@@H](c3c[nH]cn3)[C@H](NC(=O)c3nc([C@H](CC(N)=O)NC[C@H](N)C(N)=O)nc(N)c3C)C(=O)N[C@H](C)[C@@H](O)[C@H](C)C(=O)N[C@H](C(=O)NCCc3nc(-c4nc(C(=O)NCCC[S+](C)C)cs4)cs3)[C@@H](C)O)O[C@@H](C)[C@@H](O)[C@@H]2O)O[C@H](CO)[C@@H](O)[C@H](OC(N)=O)[C@@H]1O; assay: as §1
[11] = substrate: [H][C@]1(O[C@@H]2[C@H](O[C@@H](c3c[nH]cn3)[C@H](NC(=O)c3nc([C@H](CC(N)=O)NC[C@H](N)C(N)=O)nc(N)c3C)C(=O)N[C@H](C)[C@@H](O)[C@H](C)C(=O)N[C@H](C(=O)NCCc3nc(-c4nc(C(=O)NCCC(=N)N)cs4)cs3)[C@@H](C)O)O[C@@H](C)[C@@H](O)[C@@H]2O)O[C@H](CO)[C@@H](O)[C@H](OC(N)=O)[C@@H]1O; assay: as §1

With `Cc1c(N)nc([C@H](CC(N)=O)NC[C@H](N)C(N)=O)nc1C(=O)N[C@H](C(=O)N[C@H](C)[C@@H](O)[C@H](C)C(=O)N[C@H](C(=O)NCCc1nc(-c2nc(C(=O)NCCC(=N)N)cs2)cs1)[C@@H](C)O)[C@@H](O[C@@H]1O[C@@H](C)[C@@H](O)[C@H](O)[C@@H]1O[C@H]1O[C@H](CO)[C@@H](O)[C@H](OC(N)=O)[C@@H]1O)c1c[nH]cn1` the “fold change (FC)” value (Bleomycin hydrolase [1]) was 0.28.

For `Cc1c(N)nc([C@H](CC(N)=O)NC[C@H](N)C(N)=O)nc1C(=O)N[C@H](C(=O)N[C@H](C)[C@@H](O)[C@H](C)C(=O)N[C@H](C(=O)NCCc1nc(-c2nc(C(=O)NCCC[S+](C)C)cs2)cs1)[C@@H](C)O)[C@@H](O[C@@H]1O[C@@H](C)[C@@H](O)[C@H](O)[C@@H]1O[C@H]1O[C@H](CO)[C@@H](O)[C@H](OC(N)=O)[C@@H]1O)c1c[nH]cn1`, the “fold change (FC)” value (Bleomycin hydrolase [1]) was 0.11.

`Cc1c(N)nc([C@H](CC(N)=O)NC[C@H](N)C(N)=O)nc1C(=O)N[C@H](C(=O)N[C@H](C)[C@@H](O)CC(=O)N[C@H](C(=O)NCCc1nc(-c2nc(C(=O)NCCCC(N)CC(=O)NCCCNCCCCN)cs2)cs1)[C@@H](C)O)[C@@H](O[C@@H]1O[C@@H](C)[C@@H](O)[C@H](O)[C@@H]1O[C@H]1O[C@H](CO)[C@@H](O)[C@H](OC(N)=O)[C@@H]1O)c1c[nH]cn1` (stereo partly drawn) was tested, and the “fold change (FC)” value (Bleomycin hydrolase [1]) was 0.06.

With `Cc1c(N)nc([C@H](CC(N)=O)NC[C@H](N)C(N)=O)nc1C(=O)N[C@H](C(=O)N[C@H](C)[C@@H](O)CC(=O)N[C@H](C(=O)NCCc1nc(-c2nc(C(=O)NCCCC(N)CC(=O)NCCCNCCCCN)cs2)cs1)[C@@H](C)O)[C@@H](O[C@@H]1O[C@@H](CO)[C@@H](O)[C@H](O)[C@@H]1O[C@H]1O[C@H](CO)[C@@H](O)[C@H](OC(N)=O)[C@@H]1O)c1c[nH]cn1` (stereo partly drawn) the “fold change (FC)” value (Bleomycin hydrolase [1]) was 0.06.

For `Cc1c(N)nc([C@H](CC(N)=O)NC[C@H](N)C(N)=O)nc1C(=O)N[C@H](C(=O)N[C@H](C)[C@@H](O)[C@H](C)C(=O)N[C@H](C(=O)NCCc1nc(-c2nc(C(=O)NCCC(=N)N)cs2)cs1)[C@@H](C)O)[C@@H](O[C@@H]1O[C@@H](CO)[C@@H](O)[C@H](O)[C@@H]1O[C@H]1O[C@H](CO)[C@@H](O)[C@H](OC(N)=O)[C@@H]1O)c1c[nH]cn1`, the “fold change (FC)” value (Bleomycin hydrolase [1]) was 0.19.

With BLEOMYCIN the “fold change (FC)” value (Bleomycin hydrolase [1]) was 0.12, the Kcat/Km (Bleomycin hydrolase [2]) was 6.7 ×10⁻³ /microM/s and the Kcat (Bleomycin hydrolase [3]) was 4 s⁻¹. The Km (Bleomycin hydrolase [3]) was 592 µM and the Kcat/Km (Bleomycin hydrolase [4]) was 5000 M⁻¹ s⁻¹.

B1: Bleomycin hydrolase (Homo sapiens) (protein)
chain: T1 sequence (Q13867 whole entry)
B1 gave a kcat/Km [5] of 12000 M⁻¹ s⁻¹, a Km [6] of 190 µM and a kcat [6] of 11 s⁻¹. The Km [7] was 743 µM, the kcat [7] was 2.4 s⁻¹ and the kcat/Km [7] was 3200 M⁻¹ s⁻¹. It also gave a Km [8] of 720 µM, a kcat [8] of 2.5 s⁻¹ and a kcat/Km [8] of 3500 M⁻¹ s⁻¹. For the same molecule, the Km [9] was 854 µM, the kcat [9] was 9.8 s⁻¹ and the kcat/Km [9] was 11000 M⁻¹ s⁻¹. For the same molecule, the Km [10] was 805 µM, the kcat [10] was 4.9 s⁻¹ and the kcat/Km [10] was 6100 M⁻¹ s⁻¹. For the same molecule, the Km [11] was 942 µM, the kcat [11] was 15 s⁻¹ and the kcat/Km [11] was 16000 M⁻¹ s⁻¹.
